Changes are numbered by the printed parent chain. Numbers in names are those of the source. Entries after “also recorded” stand apart in the source; their conditions may differ.
What was measured:
[1] = Small scale expression and yield of purified 6xHis-tagged IspS variants; conditions: BL21(λDE3)pLysS, 100 mL cultures
Method: N-terminally 6×His-tagged wild type IspS, IspS-L494P, and IspS-T536F were expressed and purified from strains MD09-167, DW399, and DW363, respectively. The growth procedure is suitable for histidine tagged enzymes expressed in BL21(λDE3)pLysS cells. A 3 ml of overnight culture was prepared for each 100 mL of planned growth. The appropriate antibiotics ([…] kanamycin, […] chloramphenicol) were added to 3 ml of LB medium in a 10 ml glass tube and was inoculated with 1 colony from a fresh plate of cells or directly from glycerol frozen cell stock. Cultures were grown at 30° C. overnight with shaking at ˜220 rpm. Day cultures were prepared in 100 mL of LB medium with appropriate antibiotics for each culture. Each 100 mL day culture was inoculated with 50 μl of overnight culture and grown at 37° C. with shaking at ˜220 rpm until the OD600 reached ˜0.4-0.6. Day cultures were then induced with 400 μM IPTG and allowed to continue growing at 30° C. with shaking at 220 rpm for ˜5-6 hours. […] Following Harvest, cells were used directly or stored at −80° C. until ready to process. […]
To buffer exchange the protein into a buffer suitable for protein assays and storage, a PD-10 column (GE Healthcare) was equilibrated with 25 mL PD-10 buffer (50 mM HEPES, 0.05 M NaCl, pH 7.4). […] The eluate was then analyzed by absorbance at 280 nm and SDS-PAGE gel and the samples were stored at −80° C.

[2] = DMAPP assay of site evaluation library (SEL) lysates with ELISA protein quantitation: specific activity ranked as performance index; format: biochemical; conditions: for isoprene synthase activity of variants relative to parent, in words: SEL analysis of P. alba IspS; for performance index: primary SEL screen, activity on DMAPP per unit weight relative to the parental molecule (parent = 1)
Method in brief: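 Induced E. coli cell pellets lysed in 50 mM Tris pH 8, 25 mM MgCl2, lysozyme, DNase I; 10-fold diluted supernatant reacted with DMAPP (20 mM working stock in 0.1 M phosphate pH 8.2) at 25° C for 30 min, stopped at 70° C for 12 min. Isoprene in headspace quantified by GC-MS.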

B1: L494P: P. alba IspS variant L494P; pDW101, strain DW399, SEQ ID NO: 69 (protein)
chain: MEARRSANYEPNSWDYDYLLSSDTDESIEVYKDKAKKLEAEVRREINNEKAEFLTLLELIDNVQRLGLGYRFESDIRGALDRFVSSGGFDAVTKTSLHGTALSFRLLRQHGFEVSQEAFSGFKDQNGNFLENLKEDIKAILSLYEASFLALEGENILDEAKVFAISHLKELSEEKIGKELAEQVNHALELPLHRRTQRLEAVWSIEAYRKKEDANQVLLELAILDYNMIQSVYQRDLRETSRWWRRVGLATKLHFARDRLIESFYWAVGVAFEPQYSDCRNSVAKMFSFVTIIDDIYDVYGTLDELELFTDAVERWDVNAINDLPDYMKLCFLALYNTINEIAYDNLKDKGENILPYLTKAWADLCNAFLQEAKWLYNKSTPTFDDYFGNAWKSSSGPLQLVFAYFAVVQNIKKEEIENLQKYHDTISRPSHIFRLCNDLASASAEIARGETANSVSCYMRTKGISEELATESVMNLIDETWKKMNKEKLGGSPFAKPFVETAINLARQSHCTYHNGDAHTSPDELTRKRVLSVITEPILPFERENLYFQGLEHHHHHH
[1]
  expression level (yield of purified protein) compared to wild type, in words: expressed at higher levels than the wild type protein
[2]
  isoprene synthase activity of variants relative to parent, in words: improved activity; also recorded: high performing
  performance index: 2.64

B2: T536F: P. alba IspS variant T536F; pDW87, strain DW363, SEQ ID NO: 95 (protein)
chain: B1 chain with P494L, T536F
[1]
  expression level (yield of purified protein) compared to wild type, in words: expressed at higher levels than the wild type protein
[2]
  isoprene synthase activity of variants relative to parent, in words: improved isoprene synthase activity; also recorded: high performing
  performance index: 3.60

From patent US9175313B2, “Three-dimensional structure of isoprene synthase and its use thereof for generating variants” (Danisco US Inc., priority 2009, dated 2015)
